# Source: patent publication US20030148958A1 (PROCTER AND GAMBLE, published 2003)
# Ends that are not written are not given here.
# T1: CRF2R
# T1 sequence (Q13324 whole entry, species assumed, looked up): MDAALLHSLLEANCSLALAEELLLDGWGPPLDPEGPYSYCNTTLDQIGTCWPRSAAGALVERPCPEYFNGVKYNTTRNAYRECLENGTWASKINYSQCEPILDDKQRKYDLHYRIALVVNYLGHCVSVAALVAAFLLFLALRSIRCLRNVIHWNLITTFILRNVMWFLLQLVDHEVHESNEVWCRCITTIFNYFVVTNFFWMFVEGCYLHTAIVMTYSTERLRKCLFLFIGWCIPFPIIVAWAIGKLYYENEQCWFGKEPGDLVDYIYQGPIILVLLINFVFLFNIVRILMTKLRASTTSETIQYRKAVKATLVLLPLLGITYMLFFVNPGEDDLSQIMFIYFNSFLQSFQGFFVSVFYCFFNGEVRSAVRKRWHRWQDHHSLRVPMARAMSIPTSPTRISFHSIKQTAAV
# What was measured:
# [1] = target: CRF1R; assay: cell-based or functional assay
# [2] = target: T1, CRF2R; assay: cell-based or functional assay
# Wherever CRF1R Emax % is given: reference of the scale not given here.
# Wherever CRF2R Emax % is given: reference of the scale not given here.
CRF1R EC50 [1],CRF2R EC50 [2],CRF1R Emax % [1],CRF2R Emax % [2],Binder
630 nM,5.77 nM,–,–,PSLSIDLPLLLLRTLLELEKTQSQRERAEQNAIIFASV-NH2 [SEQ ID NO 348]
1000 nM,8.48 nM,–,–,DNPSLSIDLPLLLLRTLLELEKTQSQRERAEQNAIIFASV-NH2 [SEQ ID NO 346]
650 nM,4.3 nM,–,–,PSLSIDLPLLLLRTLLELEKTQSQRERAEQNAIIFASV-NH2 [SEQ ID NO 344]
1000 nM,83 nM,–,–,IVLSLDVPIGLLQILLEQARARAAREQATTNARILARVM-NH2 [SEQ ID NO 356]
1000 nM,12.9 nM,85.7%,97.4%,ZGPPISIDLPFQLLRKVIEIEKQEKEKQQATTNARLLDRV (C-terminal amide) [SEQ ID NO 351]
230 nM,4.75 nM,92.2%,89.9%,ZGPPISIDLPLYLLRKMIEIEKQEKEKQQATTNARILARV (C-terminal amide) [SEQ ID NO 353]
1000 nM,25.1 nM,20%,100%,ZGPPISIDLPFQLLRKAIEIEKQEKEKQQATTNARLLDRV (C-terminal amide) [SEQ ID NO 363]
1000 nM,51 nM,33%,75%,IVLSLDVSIGLLQILLEQARARAAREQATTNARILARV-NH2 [SEQ ID NO 370]
1000 nM,100 nM,4%,18%,IVLSLDVPIGLLQILLEQARHAHAHAHAHAQAHILAHV-NH2 [SEQ ID NO 369]
1000 nM,100 nM,6%,18%,IVLSLDVPIGLLQILLEQARHAAAHAAAHAQAHILAHV-NH2 [SEQ ID NO 367]
1000 nM,22.4 nM,–,–,DNPSLSIDLPLLLLRTLLELEKTQSQRERAEQNAIIFASV-NH2 [SEQ ID NO 347]
1000 nM,100 nM,9%,46%,IVLSLDVPIGLLQILLEKAAAEAEAAAKAAQEQILAHV-NH2 [SEQ ID NO 366]
1000 nM,6.62 nM,22%,97%,IVLSLDVPIHLLQILLEQARARAAREQATTNARILARV-NH2 [SEQ ID NO 371]
1000 nM,13.8 nM,44.2%,100%,ZGPPISIDLPLQLLRKVIEIEKQEKEKQQAANNALLLATI (C-terminal amide) [SEQ ID NO 349]
1000 nM,14.2 nM,13%,100%,ZGPPISIDVPYWLLRKVIEIEKQEKEKQQAANNARLLDTI (C-terminal amide) [SEQ ID NO 372]
1000 nM,12.7 nM,27%,99%,ZGPPISIDVPLQLLRKVIEIEKQEKEKQQAANNARLLARI (C-terminal amide) [SEQ ID NO 381]
1000 nM,11.6 nM,48%,98.1%,ZGPPISIDLPFQLLRKVIEIEKQEKEKQQAANNALLLDTI (C-terminal amide) [SEQ ID NO 350]
18 nM,6.03 nM,100%,95%,ZGPPISIDLSLELLRKMIEIEKQEKEKQQAANNRLLLDTI (C-terminal amide) [SEQ ID NO 355]
149 nM,6.37 nM,100%,99%,ZGPPISIDLPFQLLRVLIEIEKQEKEKQQAANNALLLATI (C-terminal amide) [SEQ ID NO 361]

CRF1R EC50 [1],CRF2R EC50 [2],CRF1R Emax % [1],CRF2R Emax % [2],Binder
1000 nM,19.2 nM,25%,83%,ZGPPISIDVPYHLLRKVIEIEKQEKEKQQAANNARLLARI (C-terminal amide) [SEQ ID NO 377]
1000 nM,13.2 nM,27%,100%,ZGPPISIDLPFQLLRKAIEIEKQEKEKQQAANNALLLATI (C-terminal amide) [SEQ ID NO 364]
1000 nM,19 nM,16%,100%,ZGPPISIDVPLQLLRKVIEIEKQEKEKQQAANNARLLDTI (C-terminal amide) [SEQ ID NO 380]
386 nM,4.39 nM,100%,100%,ZGPPISIDLPFQLLRKIIEIEKQEKEKQQAANNALLLATI (C-terminal amide) [SEQ ID NO 362]
1000 nM,23.4 nM,21%,94%,ZGPPISIDLPFQLLRKAIEIEKQEKEKQQAANNALLLDTI (C-terminal amide) [SEQ ID NO 365]
1000 nM,15.8 nM,11%,91%,ZGPPISIDVPYQLLRKVIEIEKQEKEKQQAANNARLLDTI (C-terminal amide) [SEQ ID NO 374]
1000 nM,70.5 nM,8%,94%,ZGPPISIDVPIYLLRKVIEIEKQEKEKQQAANNARLLARI (C-terminal amide) [SEQ ID NO 379]
1000 nM,14.9 nM,36%,100%,ZGPPISIDVPYYLLRKVIEIEKQEKEKQQAANNARLLARI (C-terminal amide) [SEQ ID NO 378]
1000 nM,11.5 nM,9%,100%,ZGPPISIDVPYWLLRKVIEIEKQEKEKQQAANNARLLARI (C-terminal amide) [SEQ ID NO 373]
780 nM,8.26 nM,82.6%,83.7%,ZGPPISIDLPFQLLRKVIEIEKQEKEKQQAANNALLLATI (C-terminal amide) [SEQ ID NO 352]
1000 nM,52.5 nM,8%,100%,ZGPPISIDVPYHLLRKVIEIEKQEKEKQQAANNARLLDTI (C-terminal amide) [SEQ ID NO 376]
331 nM,6.44 nM,100%,100%,ZGPPISIDLPFQLLRKLIEIEKQEKEKQQAANNALLLATI (C-terminal amide) [SEQ ID NO 357]
230 nM,23.1 nM,100%,100%,ZGPPISIDLPFQLLREVIEIEKQEKEKQQAANNALLLATI (C-terminal amide) [SEQ ID NO 359]
157 nM,6.12 nM,100%,93%,ZGPPISIDLPFQLLRLLIEIEKQEKEKQQAANNALLLATI (C-terminal amide) [SEQ ID NO 360]
1000 nM,11.5 nM,22%,100%,ZGPPISIDVPYQLLRKVIEIEKQEKEKQQAANNARLLARI (C-terminal amide) [SEQ ID NO 375]
1000 nM,50.4 nM,–,–,IVLSLDVPIGLLQILLEQARARAAREQATTNARILARVM-NH2 [SEQ ID NO 368]
99 nM,5.56 nM,100%,100%,ZGPPISIDLPFQLLRILIEIEKQEKEKQQAANNALLLAT (C-terminal amide) [SEQ ID NO 358]
1000 nM,6.48 nM,13.4%,100%,IVLSLDVPIGLLQILLEQARARAAREQATTNARILARV-NH2 [SEQ ID NO 354]
1000 nM,39.7 nM,18.8%,100%,DNPSLSIDLPLILLRTLLELEKTQSQRERAEQNAIIFASV-NH2 [SEQ ID NO 345]
